Results published in patent US20060270591A1, “Androgen receptor coregulators” (priority 2002, published 2006).
Values belong to the molecule of their own block, whether it stands above or below them.

What was measured:
Format in all cases: cell-based, human
AR [1] = assay: AR transactivation assay, MMTV-CAT reporter, transient transfection (Example 1); conditions: for AR transcription activity with cotransfected coactivator: wild type AR
Method: Human prostate cancer DU145 or PC3 cells, or human lung carcinoma cells NCI H1299 were grown in Dulbecco's minimal essential medium (DMEM) containing penicillin (25 U/ml), streptomycin (25˜g/ml), and 5% fetal calf serum (FCS). One hour before transfection, the medium was changed to DMEM with 5% charcoal-stripped FCS. […] A β-galactosidase expression plasmid, pCMV-β-gal, was used as an internal control for transfection efficiency.
The medium was changed 24 hr posttransfection and the cells treated with either steroid hormones or hydroxyflutamide, and cultured for an additional 24 hr. Cells were harvested and assayed for CAT activity after the cell lysates were normalized by using β-galactosidaseas an internal control. Chloramphenicol acetyltransferase (CA) activity was visualized by PhosphorImager (Molecular Dynamics) and quantitated by ImageQuant software (Molecular Dynamics).

AR [2] = assay: Mammalian two-hybrid CAT assay, interaction with AR in DU145 cells (Example 1)
Excerpt: 368. The mammalian two-hybrid system employed was essentially the protocol of Clontech (California), with the following modifications. In order to obtain better expression, the GAL4 DBD (a.a. 1-147) was fused to pSGS under the control of an SV40 promoter, and named pGALO.
369. The hinge and LBD of wtAR were then inserted into pGALO. Similarly, the VPI6 activation domain was fused to pCMX under the control of a CMV promoter, and designated pCMX-VP16 (provided by Dr. R. M. Evan).
Target sequence in this assay (P10275 669-900 limits assumed): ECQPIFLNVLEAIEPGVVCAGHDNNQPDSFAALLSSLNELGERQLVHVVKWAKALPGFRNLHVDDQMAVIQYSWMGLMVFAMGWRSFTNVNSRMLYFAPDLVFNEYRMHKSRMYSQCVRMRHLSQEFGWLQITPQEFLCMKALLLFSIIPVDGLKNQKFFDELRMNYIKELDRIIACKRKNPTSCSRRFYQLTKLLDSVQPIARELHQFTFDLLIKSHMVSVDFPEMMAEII

AR [3] = assay: AR transactivation reporter assay (CAT/luciferase) (Example 3); conditions: for effect of ARA70N construct on AR transactivation: COS-1 cells, 10 nM T, MMTV-LUC
Method: 21. […] Further adding GAL-DBD (lane 1 and 2) or GAL-DBD-ARA70N with wild type (lane 3 and 4) or mutant (lane 5-8) FXXLF motifs to the cells. (B) Effect of wild type and mutant FXXLF motifs ARA70N on AR transactivation in COS-1 cells. […] 0.5 ng SV40-Renila Luciferase was used as an internal control. Relative luciferase activity was calculated by dual luciferase system.
411. Human prostate cancer DU145 and PC-3 cells were maintained in Dulbecco's Minimum Essential Medium (DMEM) containing penicillin (25 U/ml), streptomycin (25 μg/ml), and 5% fetal calf serum (FCS). Human LNCaP cells were maintained in RPMI containing penicillin (25 U/ml), streptomycin (25 μg/ml), and 10% FCS. Transfections were performed using the calcium phosphate precipitation method, as previously described (Dynlacht et al. (1991) Cell 66, 563-576). Briefly, 4×10^5 cells were plated on 60-mm dishes 24 hours before transfection, and the medium was changed to DMEM with 5% charcoal-dextran stripped FCS (CS-FBS) one hour before transfection. Transfection medium contained a constant amount of reporter plasmid and indicated amounts of pSG5-receptor, ARA70, or pCMX-GAL fusion construct using pSG5 as a carrier to provide equal amounts of transfected DNA. […] After another 24 hours, the cells were harvested for chloramphenicol transferase (CAT) or luciferase assays. At least three independent experiments were carried out in each case. Superfect (Qiagen) was used for transfection in LNCaP cells. The transfection conditions followed the manufacturer's protocol. Cell extracts were prepared and assayed for CAT or luciferase activity (Promega) and normalized against β-galactosidase or Renilla luciferase activity as indicated. All data were the mean±SD results from three to six independent experiments.
Target sequence in this assay (P10275 whole entry, the tested form may be a part): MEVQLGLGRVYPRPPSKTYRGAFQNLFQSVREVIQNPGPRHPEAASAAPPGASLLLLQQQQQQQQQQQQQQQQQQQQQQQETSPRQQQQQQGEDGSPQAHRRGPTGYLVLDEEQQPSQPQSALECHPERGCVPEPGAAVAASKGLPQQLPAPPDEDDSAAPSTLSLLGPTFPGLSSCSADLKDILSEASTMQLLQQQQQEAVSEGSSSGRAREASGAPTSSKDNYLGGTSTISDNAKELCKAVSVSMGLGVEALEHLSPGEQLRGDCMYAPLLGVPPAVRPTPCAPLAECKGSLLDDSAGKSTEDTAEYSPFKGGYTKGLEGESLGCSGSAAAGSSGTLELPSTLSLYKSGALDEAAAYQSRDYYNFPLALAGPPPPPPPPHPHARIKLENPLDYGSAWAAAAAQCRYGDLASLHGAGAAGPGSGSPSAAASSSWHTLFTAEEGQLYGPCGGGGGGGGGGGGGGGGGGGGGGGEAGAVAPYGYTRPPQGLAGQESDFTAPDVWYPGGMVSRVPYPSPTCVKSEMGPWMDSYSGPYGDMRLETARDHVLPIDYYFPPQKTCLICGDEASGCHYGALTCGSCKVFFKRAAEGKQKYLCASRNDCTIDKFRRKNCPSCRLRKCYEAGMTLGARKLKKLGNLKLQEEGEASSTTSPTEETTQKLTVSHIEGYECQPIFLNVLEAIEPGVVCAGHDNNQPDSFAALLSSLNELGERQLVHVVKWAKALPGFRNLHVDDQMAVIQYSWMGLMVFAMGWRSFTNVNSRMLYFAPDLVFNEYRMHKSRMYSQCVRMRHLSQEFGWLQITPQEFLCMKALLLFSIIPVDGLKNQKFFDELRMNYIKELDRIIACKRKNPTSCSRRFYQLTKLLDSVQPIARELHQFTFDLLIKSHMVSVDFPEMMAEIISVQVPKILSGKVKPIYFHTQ

PSA = PSA northern and western blot in LNCaP cells (Example 3); conditions: 1 nM DHT
Excerpt: 20. […] (A) ARA70-N2 can serve as a dominant-negative to inhibit coregulator enhanced AR activity in DU145 cells. The pCMV-β-gal construct was used as an internal control, and the relative CAT activity was normalized by the β-gal activity. Data represent the mean±S.D. of four independent experiments. (B) ARA70-N2 can serve as a dominant-negative repressor to compete with the function of endogenous coregulators and inhibit AR transactivation in LNCaP cells. (C) ARA70-N2 can serve as a dominant-negative repressor to inhibit the expression of PSA mRNA in LNCaP cells. Human prostate cancer LNCaP cells were transfected with 4 and 8 μg of ARA70-N2 for 3 hours. […] The blot containing 20 μg total RNA in each lane was hybridized with a PSA specific cDNA probe. […] (D) ARA70-N2 can inhibit PSA protein expression in a dominant-negative manner. 4×10^6 LNCaP cells were plated on 100-mm dishes 24 hours before transfection. […] The blot containing 70 μg total cell lysate in each lane was hybridized with a PSA specific antibody. The same membrane was hybridized with a specific antibody for β-actin for equal protein loading.

B1: ARA55: AR coactivator, 444 aa polypeptide with high homology to mouse hic5 (protein)
chain: ANFNQSGNIADSSLSFTFTNSSNGPNLITTQTNSQALSQPIASSNVHDNFMNNEITASKIDDGNNSKPLSPGWTDQTAYNAFGITTGMFNTTTMDDVYNYLFDDEDTPPNPKKEMPRSGAPKERPAEPLTPPPSYGHQPTGQSGESSGASGDKDHLYSTVCKPRSPKPAAPAAPPFSSSSGVLGTGLCELDRLLQELNATQFNITDEIMSQFPSSKVASGEQKEDQSEDKKRPSLPSSPSPGLPKASATSATLELDRLMASLPDFRVQNHLPASGPTQPPVVSSTNEGSPSPPEPTAKGSLDTMLGLLQSDLSRRGVPTQAKGLCGSCNKPIAGQVVTALGRAWHPEHFVCGGCSTALGGSSFFEKDGAPFCPECYFERFSPRCGFCNQPIRHKMVTALGTHWHPEHFCCVSCGEPFGDEGFHEREGRPYCRRDFLQLFAPRCQGCQGPILDNYISALSLLWHPDCFVCRECFAPFSGGSFFEHEGRPLCENHFHARRGSLCPTCGLPVTGRCVSALGRRFHPDHFACTFCLRPLTKGSFQERAGKPYCQPCFLKLFG
enhancement of transactivation of wtAR, mARt877s and mARe708k (AR [1]; DHT 10^−11 to 10^−8 M, all three receptors): 4-8 fold
further increase of the DHT induction (AR [1]; DU145 cells, 10 nM DHT, AR:ARA55 up to 1:4.5): 5.3 fold
AR transcription activity with coactivator (AR [1]; DU145 cells, 10 nM DHT, with ARA55): 22.8 fold
increase of AR transcription activity upon transfection with exogenous ARA55 (AR [1]; PC3 cells): 4 fold

B2: Rb: retinoblastoma protein (protein, UniProt P06400 2-928, looked up)
Retinoblastoma-associated …: PPKTPRKTAATAAAAAAEPPAPPPPPPPEEDPEQDSGPEDLPLVRLEFEETEEPDFTALCQKLKIPDHVRERAWLTWEKVSSVDGVLGGYIQKKKELWGICIFIAAVDLDEMSFTFTELQKNIEISVHKFFNLLKEIDTSTKVDNAMSRLLKKYDVLFALFSKLERTCELIYLTQPSSSISTEINSALVLKVSWITFLLAKGEVLQMEDDLVISFQLMLCVLDYFIKLSPPMLLKEPYKTAVIPINGSPRTPRRGQNRSARIAKQLENDTRIIEVLCKEHECNIDEVKNVYFKNFIPFMNSLGLVTSNGLPEVENLSKRYEEIYLKNKDLDARLFLDHDKTLQTDSIDSFETQRTPRKSNLDEEVNVIPPHTPVRTVMNTIQQLMMILNSASDQPSENLISYFNNCTVNPKESILKRVKDIGYIFKEKFAKAVGQGCVEIGSQRYKLGVRLYYRVMESMLKSEEERLSIQNFSKLLNDNIFHMSLLACALEVVMATYSRSTSQNLDSGTDLSFPWILNVLNLKAFDFYKVIESFIKAEGNLTREMIKHLERCEHRIMESLAWLSDSPLFDLIKQSKDREGPTDHLESACPLNLPLQNNHTAADMYLSPVRSPKKKGSTTRVNSTANAETQATSAFQTQKPLKSTSLSLFYKKVYRLAYLRLNTLCERLLSEHPELEHIIWTLFQHTLQNEYELMRDRHLDQIMMCSMYGICKVKNIDLKFKIIVTAYKDLPHAVQETFKRVLIKEEEYDSIIVFYNSVFMQRLKTNILQYASTRPPTLSPIPHIPRSPYKFPSSPLRIPGGNIYISPLKSPYKISEGLPTPTKMTPRSRILVSIGESFGTSEKFQKINQMVCNSDRVLKRSAEGSNPPKPLKKLRFDIEGSDEADGSKHLPGESKFQQKLAEMTSTRTRMQKQKMNDSMDTSNKEEK
AR transcription activity with cotransfected coactivator (AR [1]; DU145 cells, 1 nM DHT): 21 fold
AR transcription activity with cotransfected coactivator (AR [1]; DU145 cells, 10 nM E2): 12 fold
induced CAT activity in mammalian two-hybrid assay (AR [2]): 3 fold

B3: ARA55251-444: C-terminus of ARA55 (a.a. 251-444 of SEQ ID NO:4) (protein)
chain: EKDGAPFCPECYFERFSPRCGFCNQPIRHKMVTALGTHWHPEHFCCVSCGEPFGDEGFHEREGRPYCRRDFLQLFAPRCQGCQGPILDNYISALSLLWHPDCFVCRECFAPFSGGSFFEHEGRPLCENHFHARRGSLCPTCGLPVTGRCVSALGRRFHPDHFACTFCLRPLTKGSFQERAGKPYCQPCFLKLFG
modifications: Homo sapien
effect on AR transcription activity (AR [1]; PC3 cells, endogenous ARA55, 10 nM DHT): dramatically reduced AR transcription activity

effect of ARA70N construct on AR transactivation (AR [3]): marginal induction effect
B4: pSG5-ARA70N-AXXLF: ARA70N with FXXLF motif mutated to AXXLF (protein)
chain: MNTFQDQSGSSSNREPLLRCSDARRDLELAIGGVLRAEQQIKDNLREVKAQIHSCISRHLECLRSREVWLYEQVDLIYQLKEETLQQQAQQLYSLLGQFNCLTHQLECTQNKDLANQVSVCLERLGSLTLKPEDSTVLLFEADTITLRQTITTFGSLKTIQIPEHLMAHASSANIGPFLEKRGCISMPEQKSASGIVAVPFSEWLLGSKPASGYQAPYIPSTDPQDWLTQKQTLENSQTSSRACNFFNNVGGNLKGLENWLLKSEKSSYQKCNSHSTTSSFSIEMEKVGDQELPDQDEMDLSDWLVTPQESHKLRKPENGSRETSEKFKLLFQSYNVNDWLVKTDSCTNCQGNQPKGVEIENLGNLKCLNDHLEAKKPLSTPSMVTEDWLVQNHQDPCKVE

effect of ARA70N construct on AR transactivation (AR [3]): marginal induction effect
B5: pSG5-ARA70N-FXXAA: ARA70N with FXXLF motif mutated to FXXAA (protein)
chain: MNTFQDQSGSSSNREPLLRCSDARRDLELAIGGVLRAEQQIKDNLREVKAQIHSCISRHLECLRSREVWLYEQVDLIYQLKEETLQQQAQQLYSLLGQFNCLTHQLECTQNKDLANQVSVCLERLGSLTLKPEDSTVLLFEADTITLRQTITTFGSLKTIQIPEHLMAHASSANIGPFLEKRGCISMPEQKSASGIVAVPFSEWLLGSKPASGYQAPYIPSTDPQDWLTQKQTLENSQTSSRACNFFNNVGGNLKGLENWLLKSEKSSYQKCNSHSTTSSFSIEMEKVGDQELPDQDEMDLSDWLVTPQESHKLRKPENGSRETSEKFKLLFQSYNVNDWLVKTDSCTNCQGNQPKGVEIENLGNLKCLNDHLEAKKPLSTPSMVTEDWLVQNHQDPCKVE

B6: ARA70-N2: ARA70 region between amino acids 176-401, dominant-negative repressor (protein, UniProt Q13772 176-401, looked up, fragment)
chain: GPFLEKRGCISMPEQKSASGIVAVPFSEWLLGSKPASGYQAPYIPSTDPQDWLTQKQTLENSQTSSRACNFFNNVGGNLKGLENWLLKSEKSSYQKCNSHSTTSSFSIEMEKVGDQELPDQDEMDLSDWLVTPQESHKLRKPENGSRETSEKFKLLFQSYNVNDWLVKTDSCTNCQGNQPKGVEIENLGNLKCLNDHLEAKKPLSTPSMVTEDWLVQNHQDPCKVE
effect on PSA mRNA and protein expression (PSA): repressed PSA mRNA
effect on ARA70N-enhanced AR transactivation (AR [3]; DU145 cells): inhibit ARA70N-enhanced AR transactivation
